# Experimental data reported in IntAct's records for PubMed 31570497.
# B1: Envelopment polyprotein (Uukuniemi virus (strain S23)), P09613 (parent)
# chain: MVRTYLLLLLLCGPATPFFNHLMDVTRRLLDSSNATWQRDQPDTHRLSRLDAHVMSMLGVGSHIDEVSVNHSQHLHNFRSYNCEEGRRTLTMMDPKSGKFKRLKCNENQTLSKDCASCIEKKSSIMKSEHLVYDDAICQSDYSSPEAMPDHETHLCRIGPLHIQHCTHEAKRVQHVSWFWIDGKLRVYDDFSVSWTEGKFLSLFDCLNETSKDHNCNKAVCLEGRCSGDLQFCTEFTCSYAKADCNCKRNQVSGVAVVHTKHGSFMPECMGQSLWSVRKPLSKRSVTVQQPCMDCESDCKVDHILVIVRHFYPDHYQACLGSTCLTGRAKDKEFKIPFKMADRLSDSHFEIRIWDKERSNEYFLESRCESVDACAAITCWFCRANWANIHCFSKEQVLILVAVSSLCILLLASVLRALKVIATFTWKIIKPFWWILSLLCRTCSKRLNKRAERLKESIHSLEEGLNNVDEGPREQNNPARAVARPNVRQKMFNLTRLSPVVVGMLCLACPVESCSDSISVTASSQRCSTSSDGVNSCFVSTSSLLQVSPKGQESCLILKGPTGTAVDSIRIKTTDIKLECVRRDLYWVPRVTHRCIGTRRCHLMGACKGEACSEFKINDYSPEWGHEEELMAQLGWSYCVEQCGGALCQCFNMRPSCFYLRKTFSHLSQDAFNIYECSEWSYRINVLVSTNSTHSNLTLKLGVPDSIPHGLISLSSVSQPPAIAYSECFGEDLHGTKFHTVCNRRTDYTLGRIGEIQCPTKADALAVSKRCISSDSIIFSKVHKDSVDCQSSIIDPMTIRNRNKLPSTVGSVTFWPTETSVEAAIPDLASATMLIRLDGYTIQFRSDSNKCSPRFLSLSGCYNCEAGAKLELEHVTDFGTALGILECPSLGYTTYYEVKNTLEKSIRTMHLNGSHVEAKCYFRCPNSESQLTIRGELIYLFNDDIRHHNQTLSPGLSPKSGSGWDPFGWFKASWLRAIWAILGGTVSLIIGVVIIYMVFTLCLKVKKS
# Variants of: B1
# Details: with gbf1_human GBF1, Q92538
# Chain of gbf1_human GBF1, Q92538 (Q92538 whole entry): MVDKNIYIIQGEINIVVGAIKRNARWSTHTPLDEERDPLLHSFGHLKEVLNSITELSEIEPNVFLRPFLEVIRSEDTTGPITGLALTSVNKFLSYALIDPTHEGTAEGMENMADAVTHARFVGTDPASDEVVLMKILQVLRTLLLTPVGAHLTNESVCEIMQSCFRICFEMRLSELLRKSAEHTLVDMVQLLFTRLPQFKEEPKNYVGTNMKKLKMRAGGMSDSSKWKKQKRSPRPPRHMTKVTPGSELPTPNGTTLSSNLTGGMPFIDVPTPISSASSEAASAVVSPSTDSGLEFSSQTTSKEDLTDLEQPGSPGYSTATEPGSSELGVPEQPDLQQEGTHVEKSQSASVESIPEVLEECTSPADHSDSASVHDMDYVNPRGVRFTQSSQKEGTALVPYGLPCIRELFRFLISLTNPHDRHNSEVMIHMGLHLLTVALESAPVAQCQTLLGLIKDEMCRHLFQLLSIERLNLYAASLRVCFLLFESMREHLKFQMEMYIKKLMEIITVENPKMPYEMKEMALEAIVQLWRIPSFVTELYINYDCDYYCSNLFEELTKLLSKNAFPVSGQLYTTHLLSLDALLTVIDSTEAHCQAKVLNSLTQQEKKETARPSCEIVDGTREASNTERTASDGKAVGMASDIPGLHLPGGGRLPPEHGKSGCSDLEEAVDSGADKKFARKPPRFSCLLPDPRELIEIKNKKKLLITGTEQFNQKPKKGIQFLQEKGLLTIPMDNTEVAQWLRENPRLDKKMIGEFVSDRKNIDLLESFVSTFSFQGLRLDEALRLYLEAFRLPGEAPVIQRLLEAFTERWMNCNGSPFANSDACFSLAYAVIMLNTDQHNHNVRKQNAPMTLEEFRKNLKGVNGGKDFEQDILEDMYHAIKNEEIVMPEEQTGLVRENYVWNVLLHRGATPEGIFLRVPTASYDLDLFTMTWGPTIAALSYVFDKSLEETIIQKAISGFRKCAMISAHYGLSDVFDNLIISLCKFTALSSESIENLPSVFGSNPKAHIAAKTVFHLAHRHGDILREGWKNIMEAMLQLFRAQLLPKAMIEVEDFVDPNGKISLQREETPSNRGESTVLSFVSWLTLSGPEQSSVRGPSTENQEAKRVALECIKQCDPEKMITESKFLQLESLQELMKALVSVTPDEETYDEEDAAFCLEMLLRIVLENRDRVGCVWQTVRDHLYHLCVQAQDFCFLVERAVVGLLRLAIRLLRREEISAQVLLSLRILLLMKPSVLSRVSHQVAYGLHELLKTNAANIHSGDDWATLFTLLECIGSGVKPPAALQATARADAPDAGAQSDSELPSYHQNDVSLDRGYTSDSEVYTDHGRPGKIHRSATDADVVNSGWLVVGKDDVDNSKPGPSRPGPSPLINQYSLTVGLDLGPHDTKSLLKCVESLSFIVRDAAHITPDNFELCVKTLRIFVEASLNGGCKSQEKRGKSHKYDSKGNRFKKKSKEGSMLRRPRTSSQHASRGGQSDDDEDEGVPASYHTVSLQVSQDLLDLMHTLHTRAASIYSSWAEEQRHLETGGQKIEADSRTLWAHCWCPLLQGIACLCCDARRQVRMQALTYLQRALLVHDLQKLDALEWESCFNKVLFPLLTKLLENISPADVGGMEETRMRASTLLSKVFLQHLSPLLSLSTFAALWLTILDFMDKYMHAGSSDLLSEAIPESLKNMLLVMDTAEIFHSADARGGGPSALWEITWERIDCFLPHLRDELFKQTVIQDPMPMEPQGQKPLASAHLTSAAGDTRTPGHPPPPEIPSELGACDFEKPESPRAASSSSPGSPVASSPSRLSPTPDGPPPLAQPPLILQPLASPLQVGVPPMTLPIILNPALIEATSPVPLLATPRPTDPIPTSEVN
row,Variant,effect of a mutation on the interaction
1,L461A;E462A;E463A;G464A;L465A,with no effect
2,L438A;L439A,with no effect
